This assay deals with T1, S6K11-364K144N (Rattus norvegicus, UniProt P67999, K167N).
T1 construct: Purified HA-S6K1-364 was incubated with synthetic S6K1 (rat) tail peptides; made in house; host or cells: COS7; anti-HA immunoprecipitate
Briefly: S6K1 in vitro reconstitution kinase assay with tail peptides. The class given is biochemical. The following applies: peptide 90 μM. As to the method: FIG. 13. The tail phosphate synergistically enhances the ability of the HM phosphate to activate S6K, dependent on the tail phosphate-binding site. (A) The kinase activity of purified kinase domain of S6K1 (S6K11-364), pre-phosphorylated by PDK1 in the activation loop, was determined in the presence of increasing concentrations of synthetic S6K1 tail peptide (residues 366-395) that was either non-phosphorylated (S371/T389), phosphorylated at Ser371 (pS371/T389) or Thr389 (5371/pT389) or phosphorylated at both sites (pS371/pT389). (B) The kinase activity of S6K11-364 and S6K11-364K144N, either pre-phosphorylated or not by PDK1, was determined in the absence or presence of 90 μM S371/pT389 or pS371/pT389. (C) pS371/pT389 S6K1 tail peptide was biotinylated and used to coat streptavidin Sensor Chips. The chips were thereafter analyzed for binding to purified GST-S6K11-365 or GST-56K11-365K144N. (A-C) Experiments were repeated at least 3 times and activity data (expressed as percent) are means±SD.
We established an in vitro reconstitution assay that could test a direct activation of the AGC kinase domain by the tail phosphate and characterize its cooperation with the HM and activation loop phosphates. […] Subsequently, the kinase activity of S6K11-364 was determined. […]

T1 sequence (P67999 24-387 K167N): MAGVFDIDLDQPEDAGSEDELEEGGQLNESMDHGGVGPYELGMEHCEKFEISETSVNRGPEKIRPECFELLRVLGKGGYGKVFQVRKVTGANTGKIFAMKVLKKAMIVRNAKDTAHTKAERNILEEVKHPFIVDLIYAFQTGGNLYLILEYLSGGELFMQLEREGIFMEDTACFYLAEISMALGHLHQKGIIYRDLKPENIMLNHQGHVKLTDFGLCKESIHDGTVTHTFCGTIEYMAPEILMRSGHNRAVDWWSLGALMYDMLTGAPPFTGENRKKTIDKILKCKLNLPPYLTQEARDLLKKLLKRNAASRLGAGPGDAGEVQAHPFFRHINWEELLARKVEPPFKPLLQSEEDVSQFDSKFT

With “S371/pT389: synthetic S6K1 tail peptide (residues 366-395) phosphorylated in the HM”, the “activation of S6K11-364K144N (in words)” value was “activated normally”.
